First the molecules themselves.
B1: immunizing peptide CGGGESVLTLK (peptide)
peptide: CGGGESVLTLK
modifications: also: conjugated to KLH for immunization
notes: Conjugated to KLH for immunization; also called peptide antigen; peptide ESVLTLK424
B2: mouse monoclonal antibody 26A6 (antibody, mouse IgG2b, kappa, V domains shown)
VH: EVQLQQSGPVLVKPGASVKMSCKASGYTFTDFYLNWVKQSHGKTLEWIGVINPYNGITRYNQKFGGTATLTVDKSSSTAYMELNSLTSEDSAVYYCSRGGKTYYFDYWGQGTTLTVSP
VL: DVVMTQSPLSLPVSLGDQASISCRSSQSLVHSNGNTYLHWYLQKPGQSPKLLIYKVSNRFSGVPDRFSGSGSGTDFTLKINRVEAEDLGVYFCSQSTHVPPVTFGGGTKLEIKR
notes: used as hybridoma supernatant or Protein G-purified; also called 26A6 mAb; hybridoma ATCC PTA-126751

The target of experiment [1] is B2. Kind of experiment: competition in immunofluorescence of human brain sections. On the procedure:
Slides were baked in a 40° C. oven overnight, then deparaffinized using SafeClear (Fisher Scientific, Hampton, NH), and rehydrated through a series of alcohols and finally into PBS. Antigen retrieval was carried out in pressurized decloaking chamber (BioCare Medical, Concord, CA), according to manufacturer's directions using the Borg antigen retrieval solution (BioCare Medical, Concord, CA). Following antigen retrieval, slides were washed 3× in PBS. For sections designated for staining with the β-amyloid antibody downstream, the sections were treated with 70% formic acid for 5 mins, then washed. All sections were treated with 3% H₂O₂ in methanol to block endogenous […] activity. Slides were washed in PBS and sections were either stained for immunofluorescence or immunohistochemistry.
For immunofluorescence, sections were incubated in blocking solution (PBS with 3% bovine serum albumin, 5% goat serum, and 0.05% Triton X 100) for 30 minutes, and incubated overnight at room temperature in primary antibody in that same blocking solution. Primary antibodies used were: rabbit anti-GFAP (1:200; catalog #12389, Cell Signaling Technology, Danviers, MA) and mouse 26A6 hybridoma supernatants diluted 1:5 or 10 ug/ml of purified 26A6 antibody. Sometimes 75 μg/ml immunizing peptide was included with the 26A6 antibody as a negative control. […]

Experiment [2] has as its target B1. Kind of experiment: ELISA on the immunizing peptide. Here is the method:
These mice were selected for further boosting and fusion with a Sp2/0 myeloma partner. The resulting hybridomas were screened first in ELISA assays to the immunizing peptide and secondly in Western blot assays to the uncleaved and cleaved CN, to confirm that they selectively bound the cleaved CN. A positive clone was identified-26A6. This clone was developed/subcloned further and characterized as to isotype. 26A6 is an IgG2b with a kappa light chain.
ELISA assays were carried out at GenScript. The immunizing peptide itself was bound to plates at a concentration of 1 μg/ml, 100 μl per well and supernatants from the hybridomas were used to bind to the peptide. An anti-IgG-HRP conjugated secondary antibody was used to detect the primary 26A6 antibody.

Where no end group is shown, it is not given here.

Consider B1, for which the binding result in experiment [1] is “binds”.
On to B2, for which the binding result in experiment [2] was “binds”.

For the origin of these results see patent publication US20240142454A1 (UNIVERSITY OF KENTUCKY RESEARCH FOUNDATION, published 2024).
